Measurements taken from patent US20240084003A1 (SIMCERE ZAIMING PHARMACEUTICAL, published 2024).
Changes are numbered by the printed parent chain. Where two headings read alike, the source gives them in different places.

Tests used:
[1] = biological target: T1, murine CD22 protein (ACROBiosystems, SI2-M52Ha) (murine, UniProt P35329 22-708); experiment: ELISA, coated murine CD22, 0.1 nM Ab
T1 construct: extracellular domain; also called murine CD22-ECD; murine CD22-ECD-His
T1 sequence (looked up): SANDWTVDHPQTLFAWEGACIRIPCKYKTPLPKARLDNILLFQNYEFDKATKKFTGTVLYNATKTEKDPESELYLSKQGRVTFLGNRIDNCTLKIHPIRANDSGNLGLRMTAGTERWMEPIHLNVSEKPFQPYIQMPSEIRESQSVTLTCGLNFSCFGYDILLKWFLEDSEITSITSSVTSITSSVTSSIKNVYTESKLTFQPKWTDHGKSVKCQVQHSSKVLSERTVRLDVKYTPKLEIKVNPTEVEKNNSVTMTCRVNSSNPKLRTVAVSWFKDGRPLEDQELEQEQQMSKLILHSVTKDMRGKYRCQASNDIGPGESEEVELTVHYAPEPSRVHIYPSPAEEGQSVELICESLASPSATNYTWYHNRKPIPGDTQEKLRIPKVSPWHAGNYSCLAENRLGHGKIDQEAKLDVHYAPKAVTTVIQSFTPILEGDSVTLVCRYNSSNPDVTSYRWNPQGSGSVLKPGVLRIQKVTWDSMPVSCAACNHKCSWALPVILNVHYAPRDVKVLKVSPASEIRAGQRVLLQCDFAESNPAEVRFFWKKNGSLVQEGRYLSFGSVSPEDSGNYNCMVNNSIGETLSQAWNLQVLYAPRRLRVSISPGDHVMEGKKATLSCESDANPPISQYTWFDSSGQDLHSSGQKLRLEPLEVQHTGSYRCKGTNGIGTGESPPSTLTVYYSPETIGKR
Method in brief: (§1)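 Direct ELISA: chimeric antibody binding to CD22 coated at 2 μg/mL, with a 37° C, 2 h antibody step and HRP/TMB detection.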

[2] = biological target: T1, murine CD22 protein (ACROBiosystems, …); experiment: ELISA, coated murine CD22, 10 nM Ab
Method in brief: as §1

[3] = biological target: T2, human CD22, endogenous on Raji cells (human, UniProt P20273 20-847); experiment: FACS, Raji cells
T2 construct: whole, on cells; Endogenous protein of the Raji cell line
T2 sequence (looked up): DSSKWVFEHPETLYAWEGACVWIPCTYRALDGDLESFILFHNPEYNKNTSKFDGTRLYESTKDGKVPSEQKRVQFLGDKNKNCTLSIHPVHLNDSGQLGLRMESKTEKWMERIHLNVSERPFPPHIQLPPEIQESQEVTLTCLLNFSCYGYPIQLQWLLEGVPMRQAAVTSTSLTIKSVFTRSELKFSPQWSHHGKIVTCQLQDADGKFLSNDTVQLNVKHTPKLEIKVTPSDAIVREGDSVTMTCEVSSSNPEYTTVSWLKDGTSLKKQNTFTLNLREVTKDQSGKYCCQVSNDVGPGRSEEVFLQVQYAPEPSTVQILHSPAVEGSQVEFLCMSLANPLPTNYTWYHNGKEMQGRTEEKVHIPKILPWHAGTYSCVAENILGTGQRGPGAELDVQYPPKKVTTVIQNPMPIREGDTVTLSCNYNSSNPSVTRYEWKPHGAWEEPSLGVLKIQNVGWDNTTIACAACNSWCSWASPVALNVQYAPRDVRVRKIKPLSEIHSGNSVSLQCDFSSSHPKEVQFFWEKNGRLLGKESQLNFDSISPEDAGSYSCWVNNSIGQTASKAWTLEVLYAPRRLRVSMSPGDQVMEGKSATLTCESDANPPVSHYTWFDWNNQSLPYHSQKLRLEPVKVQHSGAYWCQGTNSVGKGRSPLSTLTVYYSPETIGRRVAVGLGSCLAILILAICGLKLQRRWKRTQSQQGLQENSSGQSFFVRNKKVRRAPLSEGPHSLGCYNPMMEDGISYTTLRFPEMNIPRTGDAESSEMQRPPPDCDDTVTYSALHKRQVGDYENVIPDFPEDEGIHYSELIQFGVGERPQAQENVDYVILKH
Excerpt: (§2) The required cells were scale-up cultured in a T-75 cell culture flask to the logarithmic growth phase. For the adherent cell CHO-K1, the medium was aspirated, the cells were washed 2 times with PBS buffer, and then digested with trypsin. After the digestion was terminated, the cells were washed 2 times with PBS buffer. For suspension cell Raji, the medium supernatant was directly centrifuged and discarded, and the cell pellet was washed 2 times with PBS. After counting the cells in the previous step, the cell pellet was resuspended with [PBS+2% (w/w) BSA] blocking solution to 2×10⁶ cells/ml, and added to a 96-well FACS reaction plate at 50 μl/well, and then the chimeric antibody test sample was added at 50 μl/well, and incubated on ice for 2 hours. The mixture was centrifuged and washed 3 times with PBS buffer, Alexa Flour 488-labeled secondary antibody (purchased from Invitrogen, catalog number: A-11013) was added at 50 μl/well, and incubated on ice for 1 hour. The obtained mixture was centrifuged and washed 5 times with PBS, and FACS (FACS Canto™, purchased from BD Company) was used for detection and result analysis. Data analysis was performed by software (CellQuest) to obtain the mean fluorescence density (MFI)of the cells. And then software (GraphPad Prism8) was used for analysis, data fitting, and EC50 value calculation. […] The same method was used to detect the binding of the chimeric antibodies to endogenous CD22-negative cell MoLT4 cells (purchased from ATCC, CRL-1582) and CHO-K1 cells.

[4] = biological target: T1, murine CD22 protein (ACROBiosystems, …); experiment: ELISA, coated murine CD22, 0.00001 nM Ab
Method in brief: as §1

[5] = biological target: T1, murine CD22 protein (ACROBiosystems, …); experiment: ELISA, coated murine CD22, 100 nM Ab
Method in brief: as §1

[6] = biological target: T3, human CD22, full length, on CHO-K1-human CD22 2C4 cells (human, UniProt P20273 20-847); experiment: FACS, CHO-K1-human CD22 2C4 cells
T3 construct: Full-length human CD22 (NCBI NP_001762.2) stably transfected into CHO-K1
T3 sequence: T2 sequence (looked up)
Excerpt: as §2

[7] = biological target: T1, murine CD22 protein (ACROBiosystems, …); experiment: ELISA, coated murine CD22, 0.01 nM Ab
Method in brief: as §1

[8] = biological target: T1, murine CD22 protein (ACROBiosystems, …); experiment: ELISA, coated murine CD22, 0.001 nM Ab
Method in brief: as §1

[9] = biological target: T2, human CD22, endogenous on Raji cells; experiment: FACS, Raji cells; remark: listed apart in the source
Method in brief: (§3)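 Raji cells and CHO-K1 cells expressing human CD22 were blocked in PBS + 2% BSA at 2×10⁶ cells/ml and incubated with chimeric antibody for 2 h on ice. Bound antibody was detected with an Alexa Fluor 488 secondary for 1 h on ice and read by flow cytometry as MFI. EC50 came from curve fitting.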

[10] = biological target: T1, murine CD22 protein (ACROBiosystems, …); experiment: ELISA, coated murine CD22, 0.0001 nM Ab
Method in brief: as §1

[11] = biological target: T3, human CD22, full length, on …; experiment: FACS, CHO-K1-human CD22 2C4 cells; remark: listed apart in the source
Method in brief: as §3

B1: HA22-hIgG1 (antibody, V domains shown)
VH: EVQLVESGGGLVKPGGSLKLSCAASGFAFSIYDMSWVRQTPEKCLEWVAYISSGGGTTYYPDTVKGRFTISRDNAKNTLYLQMSSLKSEDTAMYYCARHSGYGTHWGVLFAYWGQGTLVTVSA
VL: DIQMTQTTSSLSASLGDRVTISCRASQDISNYLNWYQQKPDGTVKLLIYYTSILHSGVPSRFSGSGSGTDYSLTISNLEQEDFATYFCQQGNTLPWTFGCGTKLEIKR
OD450 [1]: 0.06 OD450 | OD450 [2]: 0.07 OD450 | EC50 [3]: 0.71 nM | Maximum mean fluorescence intensity [3]: 19700 MFI | OD450 [4]: 0.06 OD450 | OD450 [5]: 0.1 OD450 | EC50 [6]: 1.1 nM | Maximum mean fluorescence intensity [6]: 43400 MFI | OD450 [7]: 0.06 OD450 | OD450 [8]: 0.05 OD450 | EC50 [9]: 0.29 nM | Maximum mean fluorescence intensity [9]: 25000 MFI | OD450 [10]: 0.06 OD450 | EC50 [11]: 0.81 nM | Maximum mean fluorescence intensity [11]: 32700 MFI

B2: F2.70.2 human-murine chimeric antibody (antibody, human IgG1, lambda, V domains shown)
VH: EVQLVESGGGLVKPGGSLKLSCAASGFTFSDYGMNWFRQAPEKGLEWVAYISRGSHTIYYADTVKGRFTISRDNAKNTLFLQMTSLRSNDTAMYYCVRMAGYYAMDYWGQGTSVTVSS
VL: QLVLTQSSSASFSLGASAKLTCTLSSQHSSYIIEWYQQQPLKPPKYVMELKKDGSHSTGDGIPDRFSGSSSGADRYLSISNIQPEDEAIYICGVGDTIKEQFVYVFGGGTKVTVLG
notes: Chimeric, human IgG1 / lambda
OD450 [1]: 0.06 OD450 | OD450 [2]: 0.07 OD450 | EC50 [3]: 0.35 nM | Maximum mean fluorescence intensity [3]: 16600 MFI | OD450 [4]: 0.06 OD450 | OD450 [5]: 0.1 OD450 | EC50 [6]: 0.76 nM | Maximum mean fluorescence intensity [6]: 39000 MFI | OD450 [7]: 0.06 OD450 | OD450 [8]: 0.06 OD450 | OD450 [10]: 0.06 OD450

B3: F2.173.9 human-murine chimeric antibody (antibody, human IgG1, lambda, V domains shown)
VH: EVQLVESGGDLVKPGESLKLSCEASGFTFSNYAMSWVRQTPDRRLEWVATISSIGSFTYYSDSVKGRFTISRDNVKSTLHLQMNNLKSGDTAIYFCARLGVYFDSWGQGTTLTVSS
VL: B2 VL with S30T, I32T, L41H, Y46F, L50I, S57Y, A88T, G95S, T97M, E100D
notes: Chimeric, human IgG1 / lambda
OD450 [1]: 0.05 OD450 | OD450 [2]: 0.06 OD450 | EC50 [3]: 0.84 nM | Maximum mean fluorescence intensity [3]: 18900 MFI | OD450 [4]: 0.06 OD450 | OD450 [5]: 0.09 OD450 | EC50 [6]: 1.23 nM | Maximum mean fluorescence intensity [6]: 40300 MFI | OD450 [7]: 0.05 OD450 | OD450 [8]: 0.05 OD450 | OD450 [10]: 0.05 OD450

B4: F2.180.16 human-murine chimeric antibody (antibody, human IgG1, lambda, V domains shown)
VH: EVKLVESGGGLVLPGGSLKISCAASGFTFSDYYMYWIRQTPDKRLEWVAYISNTGYSTFYPDSVKGRFTVSRDNAKNTLYLQMSRLQSEDTAMYYCARHGILYAMDYWGQGTSVTVSS
VL: B2 VL with L2P, H28Y, S30T, I32T, E34G, K52H, H56R, S57H, I89T, V103M
notes: Chimeric, human IgG1 / lambda
OD450 [1]: 0.05 OD450 | OD450 [2]: 0.06 OD450 | EC50 [3]: 0.88 nM | Maximum mean fluorescence intensity [3]: 15700 MFI | OD450 [4]: 0.06 OD450 | OD450 [5]: 0.05 OD450 | EC50 [6]: 1.63 nM | Maximum mean fluorescence intensity [6]: 34400 MFI | OD450 [7]: 0.05 OD450 | OD450 [8]: 0.05 OD450 | OD450 [10]: 0.07 OD450

B5: F2.104.10 human-murine chimeric antibody (antibody, human IgG1, lambda, V domains shown)
VH: B2 VH with L11F, K76E, V114L
VL: B2 VL with L50V, P84S
notes: Chimeric, human IgG1 / lambda
OD450 [1]: 0.06 OD450 | OD450 [2]: 0.07 OD450 | EC50 [3]: 0.4 nM | Maximum mean fluorescence intensity [3]: 16300 MFI | OD450 [4]: 0.05 OD450 | OD450 [5]: 0.07 OD450 | EC50 [6]: 0.88 nM | Maximum mean fluorescence intensity [6]: 40600 MFI | OD450 [7]: 0.07 OD450 | OD450 [8]: 0.06 OD450 | OD450 [10]: 0.06 OD450

B6: F2.121.9 human-murine chimeric antibody (antibody, human IgG1, lambda, V domains shown)
VH: EVQLVESGGGLVKPGGSLKLSCAASGFTFSDYVMSWIRQTPEKRLEWVATISDAGSYTFYPDNLKGRFTISRDNAKNNLYLQMNHLTSEDTAFYYCAIIYFGNYGGYWGQGTLVTVSV
VL: QAVVTQESALTTSPGGTVVLTCRSNTGAVTTSNYANWVQEKPDHLFTGLIGGTSNRAPGVPVRFSGSLIGDKAALTITGAQTEDDAMYFCALWYSTHWVFGGGTKLTVLG
notes: Chimeric, human IgG1 / lambda
OD450 [1]: 0.05 OD450 | OD450 [2]: 0.06 OD450 | EC50 [3]: 0.86 nM | Maximum mean fluorescence intensity [3]: 18900 MFI | OD450 [4]: 0.06 OD450 | OD450 [5]: 0.06 OD450 | EC50 [6]: 1.09 nM | Maximum mean fluorescence intensity [6]: 39700 MFI | OD450 [7]: 0.05 OD450 | OD450 [8]: 0.06 OD450 | OD450 [10]: 0.06 OD450
